Assay results: patent publication US20050002904A1 (published 2005)
Where no end group is shown, it is not given here.

Columns and labels:
p120catenin [1] = biological target: T1, p120catenin (human, UniProt O60716 1-968, limits assumed); assay: anti-HA co-immunoprecipitation from infected endothelial cells, anti-p120 catenin blot
T1 construct: Endogenous protein in human cells; also called p120ctn
T1 sequence (looked up): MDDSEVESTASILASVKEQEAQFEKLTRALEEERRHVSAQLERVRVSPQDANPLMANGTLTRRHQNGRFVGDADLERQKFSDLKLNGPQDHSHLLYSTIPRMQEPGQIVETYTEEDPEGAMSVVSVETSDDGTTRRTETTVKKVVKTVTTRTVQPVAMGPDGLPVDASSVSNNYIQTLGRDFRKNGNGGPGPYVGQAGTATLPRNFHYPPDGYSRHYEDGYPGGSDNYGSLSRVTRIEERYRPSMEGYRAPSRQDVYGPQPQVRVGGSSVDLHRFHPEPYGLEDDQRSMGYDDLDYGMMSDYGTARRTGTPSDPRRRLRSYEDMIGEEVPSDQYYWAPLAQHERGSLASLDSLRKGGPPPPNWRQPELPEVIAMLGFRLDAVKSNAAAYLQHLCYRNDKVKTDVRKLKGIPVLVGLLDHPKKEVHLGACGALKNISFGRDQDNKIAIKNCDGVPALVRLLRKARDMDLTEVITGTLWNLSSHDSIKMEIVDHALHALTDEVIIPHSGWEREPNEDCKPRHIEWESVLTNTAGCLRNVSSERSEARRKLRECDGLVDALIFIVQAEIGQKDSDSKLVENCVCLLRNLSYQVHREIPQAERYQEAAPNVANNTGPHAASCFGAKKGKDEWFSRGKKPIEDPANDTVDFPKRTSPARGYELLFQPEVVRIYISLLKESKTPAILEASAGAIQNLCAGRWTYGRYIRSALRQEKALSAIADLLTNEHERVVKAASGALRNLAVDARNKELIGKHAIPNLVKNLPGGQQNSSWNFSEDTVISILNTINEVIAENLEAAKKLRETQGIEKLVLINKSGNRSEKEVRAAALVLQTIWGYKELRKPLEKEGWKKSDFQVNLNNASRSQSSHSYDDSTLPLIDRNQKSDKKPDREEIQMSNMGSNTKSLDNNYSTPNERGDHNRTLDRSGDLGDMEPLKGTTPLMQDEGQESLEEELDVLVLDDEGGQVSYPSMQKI

p120catenin [2] = biological target: T1, p120catenin; assay: cell-based or functional assay
Tie-2 = Tie-2 (human, UniProt Q02763 23-1124); assay: co-immunoprecipitation from HUVECs, western blot of identical blots
[3] = biological target: VEGF receptor-2 (VEGFR-2) (human, UniProt P35968 20-1356); assay: as above
Sequence of VEGF receptor-2 (VEGFR-2) (P35968 20-1356 limits assumed): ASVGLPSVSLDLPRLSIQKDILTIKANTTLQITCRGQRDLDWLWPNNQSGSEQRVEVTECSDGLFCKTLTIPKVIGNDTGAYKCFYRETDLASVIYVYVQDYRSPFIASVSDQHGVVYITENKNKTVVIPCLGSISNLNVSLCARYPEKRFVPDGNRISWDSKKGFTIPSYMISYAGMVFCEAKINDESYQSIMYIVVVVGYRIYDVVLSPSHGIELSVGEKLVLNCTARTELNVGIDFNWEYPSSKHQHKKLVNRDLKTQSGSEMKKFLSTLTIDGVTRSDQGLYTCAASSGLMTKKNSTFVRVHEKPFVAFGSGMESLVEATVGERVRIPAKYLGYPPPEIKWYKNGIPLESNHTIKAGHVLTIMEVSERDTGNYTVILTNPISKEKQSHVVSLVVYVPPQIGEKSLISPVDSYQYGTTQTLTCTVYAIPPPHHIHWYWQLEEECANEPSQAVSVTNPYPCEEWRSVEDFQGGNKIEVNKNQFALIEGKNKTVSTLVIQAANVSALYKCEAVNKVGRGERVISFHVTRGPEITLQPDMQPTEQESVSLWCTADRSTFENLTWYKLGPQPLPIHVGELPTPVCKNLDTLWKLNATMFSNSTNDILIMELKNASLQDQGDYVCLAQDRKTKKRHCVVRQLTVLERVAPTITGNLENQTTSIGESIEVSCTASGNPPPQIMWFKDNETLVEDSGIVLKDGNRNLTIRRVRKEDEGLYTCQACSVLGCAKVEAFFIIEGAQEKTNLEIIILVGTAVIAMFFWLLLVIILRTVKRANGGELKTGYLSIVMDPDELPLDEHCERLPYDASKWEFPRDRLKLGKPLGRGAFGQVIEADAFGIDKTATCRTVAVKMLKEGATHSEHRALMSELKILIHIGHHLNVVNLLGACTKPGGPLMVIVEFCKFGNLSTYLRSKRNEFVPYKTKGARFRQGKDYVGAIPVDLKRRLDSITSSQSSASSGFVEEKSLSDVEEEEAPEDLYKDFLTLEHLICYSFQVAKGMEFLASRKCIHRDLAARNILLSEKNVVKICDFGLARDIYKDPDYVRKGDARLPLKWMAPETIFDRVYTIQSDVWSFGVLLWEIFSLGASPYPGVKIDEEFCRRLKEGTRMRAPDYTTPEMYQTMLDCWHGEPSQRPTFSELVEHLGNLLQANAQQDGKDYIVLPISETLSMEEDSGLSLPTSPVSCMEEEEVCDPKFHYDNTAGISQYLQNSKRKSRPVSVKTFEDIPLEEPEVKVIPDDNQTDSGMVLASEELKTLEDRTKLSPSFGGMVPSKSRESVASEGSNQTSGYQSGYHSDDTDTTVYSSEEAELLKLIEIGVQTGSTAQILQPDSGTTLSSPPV

CD36 = CD36 (human, UniProt P16671 2-472); assay: as above
PECAM-1 = PECAM-1 (human, UniProt P16284 28-738); assay: as above
VE-cadherin = biological target: T2, VE-cadherin (human, UniProt P33151 48-784); assay: co-immunoprecipitation from HUVECs infected with wild-type PAP2b, western blot
T2 sequence (looked up): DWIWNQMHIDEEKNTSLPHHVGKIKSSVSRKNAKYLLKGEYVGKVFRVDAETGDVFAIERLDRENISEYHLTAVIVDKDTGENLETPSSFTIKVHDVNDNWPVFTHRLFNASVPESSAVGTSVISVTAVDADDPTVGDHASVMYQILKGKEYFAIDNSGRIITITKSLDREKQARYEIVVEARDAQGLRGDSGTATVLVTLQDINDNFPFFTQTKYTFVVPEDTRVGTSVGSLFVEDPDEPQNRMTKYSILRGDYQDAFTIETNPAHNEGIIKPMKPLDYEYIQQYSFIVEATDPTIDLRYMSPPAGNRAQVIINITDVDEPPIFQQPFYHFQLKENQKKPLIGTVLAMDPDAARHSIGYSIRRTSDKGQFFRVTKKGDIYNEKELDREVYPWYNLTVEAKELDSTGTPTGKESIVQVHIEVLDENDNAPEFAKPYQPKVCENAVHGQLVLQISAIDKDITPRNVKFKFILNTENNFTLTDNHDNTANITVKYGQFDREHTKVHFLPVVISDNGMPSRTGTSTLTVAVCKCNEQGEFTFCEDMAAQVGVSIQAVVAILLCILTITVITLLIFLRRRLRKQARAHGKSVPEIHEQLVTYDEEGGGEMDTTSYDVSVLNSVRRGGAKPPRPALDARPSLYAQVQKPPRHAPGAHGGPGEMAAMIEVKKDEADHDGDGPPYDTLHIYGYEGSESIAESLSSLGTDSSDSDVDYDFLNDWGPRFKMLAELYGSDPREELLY

β-catenin = biological target: T3, β-catenin (human, UniProt P35222 2-781); assay: as above
T3 sequence (looked up): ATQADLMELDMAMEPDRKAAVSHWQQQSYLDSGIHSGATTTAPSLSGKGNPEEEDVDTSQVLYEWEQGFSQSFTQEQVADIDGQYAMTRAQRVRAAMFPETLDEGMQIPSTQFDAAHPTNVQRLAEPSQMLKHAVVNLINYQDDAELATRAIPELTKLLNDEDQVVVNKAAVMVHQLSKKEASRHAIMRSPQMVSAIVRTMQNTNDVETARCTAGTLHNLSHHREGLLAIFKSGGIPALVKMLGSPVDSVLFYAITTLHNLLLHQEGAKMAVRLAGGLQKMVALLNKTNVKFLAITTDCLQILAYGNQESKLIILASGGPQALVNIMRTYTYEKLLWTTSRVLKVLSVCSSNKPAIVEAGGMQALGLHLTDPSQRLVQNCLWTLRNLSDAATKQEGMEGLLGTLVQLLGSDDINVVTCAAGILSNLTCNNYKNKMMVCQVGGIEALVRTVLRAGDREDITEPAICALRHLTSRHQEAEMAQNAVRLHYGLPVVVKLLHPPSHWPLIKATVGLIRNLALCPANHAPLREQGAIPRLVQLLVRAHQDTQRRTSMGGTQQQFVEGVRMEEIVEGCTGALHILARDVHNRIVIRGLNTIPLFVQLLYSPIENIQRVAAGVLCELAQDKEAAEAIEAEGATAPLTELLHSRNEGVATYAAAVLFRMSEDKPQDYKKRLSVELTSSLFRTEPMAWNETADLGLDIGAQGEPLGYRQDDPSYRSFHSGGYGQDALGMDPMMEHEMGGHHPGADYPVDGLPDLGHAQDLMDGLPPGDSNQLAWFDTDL

γ-catenin (plakoglobin) = biological target: T4, γ-catenin (plakoglobin) (human, UniProt P14923 1-745); assay: as above
T4 sequence (looked up): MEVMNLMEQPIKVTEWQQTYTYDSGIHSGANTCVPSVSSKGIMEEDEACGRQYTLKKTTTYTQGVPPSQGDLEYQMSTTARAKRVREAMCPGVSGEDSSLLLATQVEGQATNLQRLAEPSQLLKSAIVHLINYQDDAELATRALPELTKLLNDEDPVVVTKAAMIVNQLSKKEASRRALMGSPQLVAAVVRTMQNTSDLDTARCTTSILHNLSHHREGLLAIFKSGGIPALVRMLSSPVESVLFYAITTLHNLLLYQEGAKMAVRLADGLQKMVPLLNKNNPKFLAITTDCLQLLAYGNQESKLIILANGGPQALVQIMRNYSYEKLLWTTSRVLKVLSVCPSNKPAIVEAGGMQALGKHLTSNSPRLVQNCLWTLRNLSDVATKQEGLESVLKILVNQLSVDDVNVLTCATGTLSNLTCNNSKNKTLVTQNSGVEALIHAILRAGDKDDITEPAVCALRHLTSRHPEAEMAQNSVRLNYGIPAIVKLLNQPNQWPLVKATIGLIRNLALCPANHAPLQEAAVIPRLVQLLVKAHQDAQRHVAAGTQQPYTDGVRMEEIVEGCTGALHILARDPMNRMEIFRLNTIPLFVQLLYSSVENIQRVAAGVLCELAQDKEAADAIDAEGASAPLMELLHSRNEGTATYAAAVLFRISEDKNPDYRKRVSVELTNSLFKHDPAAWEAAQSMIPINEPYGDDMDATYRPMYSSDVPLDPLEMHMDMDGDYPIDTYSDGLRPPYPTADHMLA

soluble α2β1 integrin = soluble α2β1 integrin (UniProt P17301 30-1132; P05556 21-728); assay: solid-phase ligand binding ELISA, integrin immobilized
Sequence of soluble α2β1 integrin (P17301 30-1132, chain 1 of 2): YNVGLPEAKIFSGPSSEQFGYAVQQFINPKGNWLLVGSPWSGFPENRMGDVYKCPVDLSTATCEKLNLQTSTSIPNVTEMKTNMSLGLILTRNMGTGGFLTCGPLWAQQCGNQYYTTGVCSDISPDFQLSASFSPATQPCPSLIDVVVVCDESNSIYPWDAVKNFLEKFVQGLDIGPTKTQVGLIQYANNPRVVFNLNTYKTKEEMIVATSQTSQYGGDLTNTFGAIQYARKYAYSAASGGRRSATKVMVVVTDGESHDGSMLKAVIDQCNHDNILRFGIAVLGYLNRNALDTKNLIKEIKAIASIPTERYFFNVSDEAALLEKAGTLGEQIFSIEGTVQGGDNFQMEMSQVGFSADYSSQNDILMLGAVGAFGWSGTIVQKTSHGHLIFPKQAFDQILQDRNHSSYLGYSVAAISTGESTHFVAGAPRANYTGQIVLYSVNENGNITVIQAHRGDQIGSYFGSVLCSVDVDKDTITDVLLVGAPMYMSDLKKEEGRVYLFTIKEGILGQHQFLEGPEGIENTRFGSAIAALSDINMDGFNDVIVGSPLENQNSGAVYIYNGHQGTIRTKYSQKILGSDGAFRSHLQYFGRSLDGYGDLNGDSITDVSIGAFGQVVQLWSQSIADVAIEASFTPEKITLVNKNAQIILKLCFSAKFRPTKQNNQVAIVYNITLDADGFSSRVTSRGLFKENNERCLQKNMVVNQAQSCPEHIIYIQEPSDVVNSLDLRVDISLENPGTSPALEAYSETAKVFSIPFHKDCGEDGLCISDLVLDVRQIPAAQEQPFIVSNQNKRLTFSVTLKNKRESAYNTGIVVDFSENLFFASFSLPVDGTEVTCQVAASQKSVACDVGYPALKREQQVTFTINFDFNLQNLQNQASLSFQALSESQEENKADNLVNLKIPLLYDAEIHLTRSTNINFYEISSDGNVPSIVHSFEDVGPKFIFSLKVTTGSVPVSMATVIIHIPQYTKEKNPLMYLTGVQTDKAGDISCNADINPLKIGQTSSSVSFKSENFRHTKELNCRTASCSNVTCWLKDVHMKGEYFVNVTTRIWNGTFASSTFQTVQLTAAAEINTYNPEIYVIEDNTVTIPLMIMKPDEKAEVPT
Sequence of soluble α2β1 integrin (P05556 21-728, chain 2 of 2): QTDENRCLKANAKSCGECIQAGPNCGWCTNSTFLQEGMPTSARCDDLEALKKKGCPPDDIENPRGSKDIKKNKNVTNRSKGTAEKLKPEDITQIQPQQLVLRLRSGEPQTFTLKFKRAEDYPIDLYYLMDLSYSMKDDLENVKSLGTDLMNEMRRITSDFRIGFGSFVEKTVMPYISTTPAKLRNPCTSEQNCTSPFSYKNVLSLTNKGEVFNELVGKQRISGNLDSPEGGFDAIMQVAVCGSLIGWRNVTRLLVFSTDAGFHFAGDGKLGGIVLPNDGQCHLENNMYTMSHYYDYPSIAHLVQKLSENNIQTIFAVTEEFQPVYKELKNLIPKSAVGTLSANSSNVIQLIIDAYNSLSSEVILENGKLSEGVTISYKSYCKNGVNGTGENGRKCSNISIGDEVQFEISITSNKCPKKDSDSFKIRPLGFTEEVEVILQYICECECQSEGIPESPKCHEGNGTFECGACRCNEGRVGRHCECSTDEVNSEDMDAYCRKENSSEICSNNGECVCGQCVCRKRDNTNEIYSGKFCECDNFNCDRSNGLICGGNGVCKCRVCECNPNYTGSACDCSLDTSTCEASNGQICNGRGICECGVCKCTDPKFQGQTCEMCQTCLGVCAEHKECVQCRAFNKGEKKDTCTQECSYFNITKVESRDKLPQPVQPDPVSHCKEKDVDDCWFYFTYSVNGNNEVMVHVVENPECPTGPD

soluble αvβ5 integrin = soluble αvβ5 integrin (UniProt P06756 31-992; P18084 24-719); assay: as above
[4] = biological target: T5, αvβ3 integrin of endothelial cells (human, UniProt P06756 31-1048; P05106 27-788); assay: GST pull-down from 35S-labeled endothelial cell lysate, re-immunoprecipitation with LM609
T5 construct: whole, on cells; On cells in the adhesion assays

[5] = biological target: T6, α5β1 integrin of endothelial cells (human, UniProt P08648 42-1049; P05556 21-798); assay: GST pull-down from 35S-labeled endothelial cell lysate, re-immunoprecipitation with P1D6
T6 construct: whole, on cells; On cells in the adhesion assays
T6 sequence (P08648 42-1049, chain 1 of 2): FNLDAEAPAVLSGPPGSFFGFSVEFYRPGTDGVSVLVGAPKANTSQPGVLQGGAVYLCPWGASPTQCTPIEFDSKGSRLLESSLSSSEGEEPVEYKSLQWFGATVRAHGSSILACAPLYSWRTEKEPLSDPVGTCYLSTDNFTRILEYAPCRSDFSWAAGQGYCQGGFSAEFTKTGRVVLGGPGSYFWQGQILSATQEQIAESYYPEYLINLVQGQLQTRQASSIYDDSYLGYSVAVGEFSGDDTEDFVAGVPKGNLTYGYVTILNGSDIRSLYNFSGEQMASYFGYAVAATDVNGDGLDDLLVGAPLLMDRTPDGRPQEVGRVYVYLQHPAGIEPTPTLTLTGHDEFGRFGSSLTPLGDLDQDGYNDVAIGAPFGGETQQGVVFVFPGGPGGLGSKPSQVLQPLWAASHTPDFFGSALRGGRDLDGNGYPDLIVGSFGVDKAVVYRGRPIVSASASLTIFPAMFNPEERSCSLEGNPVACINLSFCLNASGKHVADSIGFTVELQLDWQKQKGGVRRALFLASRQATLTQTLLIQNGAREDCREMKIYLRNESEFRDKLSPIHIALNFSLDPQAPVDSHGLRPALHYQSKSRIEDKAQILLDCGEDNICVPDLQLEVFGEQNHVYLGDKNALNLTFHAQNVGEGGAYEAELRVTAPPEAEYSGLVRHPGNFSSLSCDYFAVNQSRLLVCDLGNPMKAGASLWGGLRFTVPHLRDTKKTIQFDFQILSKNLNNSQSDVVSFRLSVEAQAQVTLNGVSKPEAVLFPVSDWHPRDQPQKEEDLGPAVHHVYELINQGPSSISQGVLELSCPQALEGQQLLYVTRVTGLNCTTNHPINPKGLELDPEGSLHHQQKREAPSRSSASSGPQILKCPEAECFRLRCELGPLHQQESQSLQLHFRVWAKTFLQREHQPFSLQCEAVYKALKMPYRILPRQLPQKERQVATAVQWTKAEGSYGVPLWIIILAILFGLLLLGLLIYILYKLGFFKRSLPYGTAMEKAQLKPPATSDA
T6 sequence (P05556 21-798, chain 2 of 2): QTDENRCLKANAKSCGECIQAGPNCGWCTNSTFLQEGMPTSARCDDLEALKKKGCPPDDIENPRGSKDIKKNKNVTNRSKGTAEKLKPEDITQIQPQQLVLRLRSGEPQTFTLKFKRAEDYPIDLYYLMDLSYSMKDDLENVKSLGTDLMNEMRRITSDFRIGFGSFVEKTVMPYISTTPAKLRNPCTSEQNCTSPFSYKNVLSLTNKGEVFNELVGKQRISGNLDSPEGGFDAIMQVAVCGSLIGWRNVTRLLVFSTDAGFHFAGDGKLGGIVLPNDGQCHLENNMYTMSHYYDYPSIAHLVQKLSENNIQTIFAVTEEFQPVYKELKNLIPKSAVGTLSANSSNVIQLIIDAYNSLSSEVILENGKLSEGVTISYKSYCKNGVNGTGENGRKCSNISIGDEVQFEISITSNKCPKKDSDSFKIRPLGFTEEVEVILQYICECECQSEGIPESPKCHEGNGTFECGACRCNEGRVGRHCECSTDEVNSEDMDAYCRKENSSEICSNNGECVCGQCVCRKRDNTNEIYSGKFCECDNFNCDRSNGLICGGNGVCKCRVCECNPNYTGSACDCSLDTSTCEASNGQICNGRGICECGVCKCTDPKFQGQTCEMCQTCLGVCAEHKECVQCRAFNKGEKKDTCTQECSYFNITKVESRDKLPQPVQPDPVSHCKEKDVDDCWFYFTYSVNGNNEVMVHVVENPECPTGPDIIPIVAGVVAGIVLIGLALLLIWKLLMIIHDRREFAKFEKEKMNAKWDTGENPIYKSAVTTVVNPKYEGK

B1: PAP2b/VCIP retroviral construct E, lacking the entire C-terminal cytoplasmic segment (other, not shown: small tags and cut ends)
chain: MQNYKYDKAIVPESKNGGSPALNNNPRRSGSKRVLLICLDLFCLFMAGLPFLIIETSTIKPYHRGFYCNDESIKYPLKTGETINDAVLCAVGIVIAILAIITGEFYRIYYLKKSRSTIQNPYVAALYKQVGCFLFGCAISQSFTDIAKVSIGRLRPHFLSVCNPDFSQINCSEGYIQNYRCRGDDSKVQEARKSFFSGHASFSMYTMLYLVLYLQARFTWRGARLLRPLLQFTLIMMAFYTGLSRVSDHKHHPSDVLAGFAQGALVACCIVFFVSDLFKTKTT
notes: residues 1-283 follow from that; Expressed in endothelial cells, lysate used; also called Δ-C-Cyto-284-311; VCIP-Δ-C-cyto
B1: no binding (p120catenin [1]).

B2: wild-type VCIP/PAP2b, HA-tagged, expressed from pLNCX2-VCIP-RGD (other)
chain: YPYDVPDYAYPYDVPDYAYPYDVPDYAMQNYKYDKAIVPESKNGGSPALNNNPRRSGSKRVLLICLDLFCLFMAGLPFLIIETSTIKPYHRGFYCNDESIKYPLKTGETINDAVLCAVGIVIAILAIITGEFYRIYYLKKSRSTIQNPYVAALYKQVGCFLFGCAISQSFTDIAKVSIGRLRPHFLSVCNPDFSQINCSEGYIQNYRCRGDDSKVQEARKSFFSGHASFSMYTMLYLVLYLQARFTWRGARLLRPLLQFTLIMMAFYTGLSRVSDHKHHPSDVLAGFAQGALVACCIVFFVSDLFKTKTTLSLPAPAIRKEILSPVDIIDRNNHHNMM
notes: Expressed in HEK293, SW480 and HUVEC cells; also called VCIP-RGD (WT); pLNCX2-PAP2b-RGD
In the case of B2, the “LEF-1 luciferase (TOPFLASH) activity in SW480 cells, fold reduction, construct B” value (p120catenin [2]) is reported as roughly 3.2 fold, the binding result (Tie-2) is reported as “no binding” and the binding result [3] is reported as “no binding”. B2: no binding (CD36); no binding (PECAM-1); no binding (VE-cadherin). B2: no binding (β-catenin); no binding (γ-catenin (plakoglobin)).

B3: mutant VCIP/PAP2b-RGE, HA-tagged, expressed from pLNCX2-VCIP-RGE (other)
chain: YPYDVPDYAYPYDVPDYAYPYDVPDYAMQNYKYDKAIVPESKNGGSPALNNNPRRSGSKRVLLICLDLFCLFMAGLPFLIIETSTIKPYHRGFYCNDESIKYPLKTGETINDAVLCAVGIVIAILAIITGEFYRIYYLKKSRSTIQNPYVAALYKQVGCFLFGCAISQSFTDIAKVSIGRLRPHFLSVCNPDFSQINCSEGYIQNYRCRGEDSKVQEARKSFFSGHASFSMYTMLYLVLYLQARFTWRGARLLRPLLQFTLIMMAFYTGLSRVSDHKHHPSDVLAGFAQGALVACCIVFFVSDLFKTKTTLSLPAPAIRKEILSPVDIIDRNNHHNMM
B3 was tested, and the “LEF-1 luciferase (TOPFLASH) activity in SW480 cells, fold reduction, construct C” value (p120catenin [2]) was roughly 4.2 fold.

B4: GST-VCIP-RGD fusion protein (wild-type glutathione S-transferase-VCIP-RGD) (other)
chain: DIAKVSIGRLRPHFLSVCNPDFSQINCSEGYIQNYRCRGDDSKVQEARKS
modifications: cysteine pairing not given here; also: recombinant GST fusion
notes: also called GST-RGD-VCIP; recombinant VCIP-RGD; not shown: glutathione S-transferase (GST) encoded by the pGstag vector
B4: no binding (tested: 50-350 ng per well) (soluble α2β1 integrin); no binding (tested: 50-350 ng per well) (soluble αvβ5 integrin); binds [4]. B4: binds [5].
